Measurements: patent US20230322953A1 (HARBOUR BIOMED SHANGHAI, published 2023)

T1: human BCMA (human, UniProt Q02223 1-184)
T1 construct: whole, on cells; also called hBCMA; TNFRSF17
T1 sequence (looked up): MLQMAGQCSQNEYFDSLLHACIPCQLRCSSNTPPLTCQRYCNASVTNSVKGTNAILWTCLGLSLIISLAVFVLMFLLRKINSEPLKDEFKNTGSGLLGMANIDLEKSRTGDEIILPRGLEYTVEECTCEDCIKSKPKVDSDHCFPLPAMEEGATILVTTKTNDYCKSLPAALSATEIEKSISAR

B1: PR002301 (bispecific antibody, human IgG1, lambda, L234A L235A)
light: QAVVTQEPSLTVSPGGTVTLTCRSSTGAVTTSNYANWVQQKPGQAPRGLIGGTNKRAPWTPARFSGSLLGDKAALTLLGAQPEDEAEYFCALWYSNLWVFGGGTKLTVLGQPKAAPSVTLFPPSSEELQANKATLVCLISDFYPGAVTVAWKADSSPVKAGVETTTPSKQSNNKYAASSYLSLTPEQWKSHRSYSCQVTHEGSTVEKTVAPTECS
heavy: EVQLLESGGGLVQPGGSLRLSCAASGFTFSTYAMNWVRQAPGKGLEWVSRIRSKYNNYATYYADSVKDRFTISRDDSKSTLYLQMNSLRAEDTAVYYCVRHGNFGNSYVSWFAYWGQGTLVTVSSASTKGPSVFPLAPSSKSTSGGTAALGCLVKDYFPEPVTVSWNSGALTSGVHTFPAVLQSSGLYSLSSVVTVPSSSLGTQTYICNVNHKPSNTKVDKKVEPKSCDKTHTCPPCPAPEAAGGPSVFLFPPKPKDTLMISRTPEVTCVVVDVSHEDPEVKFNWYVDGVEVHNAKTKPREEQYNSTYRVVSVLTVLHQDWLNGKEYKCKVSNKALGAPIEKTISKAKGQPREPQVYTLPPCREEMTKNQVSLWCLVKGFYPSDIAVEWESNGQPENNYKTTPPVLDSDGSFFLYSKLTVDKSRWQQGNVFSCSVMHEALHNHYTQKSLSLSPGK
chain: EVQLLESGGGLVQPGGSLRLSCAASGFTFSSYAMIWVRQAPGKGLEWVSGISESGGSTYYADSVKGRFTISRDNSKNTLYLQMNSLRAEDTAVYFCVKDLDDILTGYYKDYWGQGTLVTVSSRTGGGGSGGGGSGGGGSGGGGSGGGGSKLEVQLLESGGGLVQPGGSLRLSCAASGFTFSSYAMIWVRQAPGKGLEWVSGISESGGSTYYADSVKGRFTISRDNSKNTLYLQMNSLRAEDTAVYFCVKDLDDILTGYYKDYWGQGTLVTVSSASEPKSSDKTHTCPPCPAPEAAGGPSVFLFPPKPKDTLMISRTPEVTCVVVDVSHEDPEVKFNWYVDGVEVHNAKTKPREEQYNSTYRVVSVLTVLHQDWLNGKEYKCKVSNKALGAPIEKTISKAKGQPREPQVCTLPPSREEMTKNQVSLSCAVKGFYPSDIAVEWESNGQPENNYKTTPPVLDSDGSFFLVSKLTVDKSRWQQGNVFSCSVMHEALHNHYTQKSLSLSPGK
B2: PR002308 (bispecific antibody, human IgG1, lambda, L234A L235A)
light: B1 light
heavy: B1 heavy
chain: EVQLVETGGGLIQPGGSLRLSCAASGFTVSDNYMTWVRQAPGKGLEWVSVIFSGGNTYYADSVKGRFTISRDNAKNTLYLQMNSLRAEDTALYYCARRNYDDTRGTDVFDIWGQGTMVTVSSRTGGGGSKLEVQLVETGGGLIQPGGSLRLSCAASGFTVSDNYMTWVRQAPGKGLEWVSVIFSGGNTYYADSVKGRFTISRDNAKNTLYLQMNSLRAEDTALYYCARRNYDDTRGTDVFDIWGQGTMVTVSSASEPKSSDKTHTCPPCPAPEAAGGPSVFLFPPKPKDTLMISRTPEVTCVVVDVSHEDPEVKFNWYVDGVEVHNAKTKPREEQYNSTYRVVSVLTVLHQDWLNGKEYKCKVSNKALGAPIEKTISKAKGQPREPQVCTLPPSREEMTKNQVSLSCAVKGFYPSDIAVEWESNGQPENNYKTTPPVLDSDGSFFLVSKLTVDKSRWQQGNVFSCSVMHEALHNHYTQKSLSLSPGK
B3: PR002310 (bispecific antibody, human IgG1, lambda, L234A L235A)
light: B1 light
heavy: B1 heavy
chain: EVQLVETGGGLIQPGGSLRLSCAASGFTVSDNYMTWVRQAPGKGLEWVSVIFSGGNTYYADSVKGRFTISRDNAKNTLYLQMNSLRAEDTALYYCARRNYDDTRGTDVFDIWGQGTMVTVSSRTGGGGSGGGGSGGGGSGGGGSGGGGSKLEVQLVETGGGLIQPGGSLRLSCAASGFTVSDNYMTWVRQAPGKGLEWVSVIFSGGNTYYADSVKGRFTISRDNAKNTLYLQMNSLRAEDTALYYCARRNYDDTRGTDVFDIWGQGTMVTVSSASEPKSSDKTHTCPPCPAPEAAGGPSVFLFPPKPKDTLMISRTPEVTCVVVDVSHEDPEVKFNWYVDGVEVHNAKTKPREEQYNSTYRVVSVLTVLHQDWLNGKEYKCKVSNKALGAPIEKTISKAKGQPREPQVCTLPPSREEMTKNQVSLSCAVKGFYPSDIAVEWESNGQPENNYKTTPPVLDSDGSFFLVSKLTVDKSRWQQGNVFSCSVMHEALHNHYTQKSLSLSPGK

How the values were obtained:
cynomolgus monkey BCMA = molecular target: T2, cynomolgus monkey BCMA (cynomolgus monkey, UniProt A0A2K5UD97 1-183); assay: FACS on HEK293T/cyno BCMA cells
T2 construct: whole, on cells; also called cyno BCMA

human BCMA = molecular target: T1, human BCMA; assay: FACS on NCI-H929 cells

T2 sequence (A0A2K5UD97 entry or part of it): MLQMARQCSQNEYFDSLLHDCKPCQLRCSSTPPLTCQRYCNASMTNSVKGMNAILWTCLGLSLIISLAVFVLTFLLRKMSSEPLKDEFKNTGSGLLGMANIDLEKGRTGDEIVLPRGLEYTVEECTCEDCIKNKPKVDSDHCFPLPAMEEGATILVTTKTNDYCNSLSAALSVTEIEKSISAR

Binder | Maximum MFI (cynomolgus monkey BCMA) | Maximum MFI (human BCMA) | EC50 (human BCMA) [nM]
B1 | 13000 | 53000 | –
B2 | 39300 | 63900 | 1.82
B3 | 42000 | 61300 | 2.09
